Positions of bridges follow the written chain, without caps; N, C: chain ends.
Target: TrkB receptor on rat cerebellar neurons (rat, UniProt Q63604 32-821)
Experiment: cell-based or functional assay

Chain of TrkB receptor on rat cerebellar neurons (Q63604 32-821): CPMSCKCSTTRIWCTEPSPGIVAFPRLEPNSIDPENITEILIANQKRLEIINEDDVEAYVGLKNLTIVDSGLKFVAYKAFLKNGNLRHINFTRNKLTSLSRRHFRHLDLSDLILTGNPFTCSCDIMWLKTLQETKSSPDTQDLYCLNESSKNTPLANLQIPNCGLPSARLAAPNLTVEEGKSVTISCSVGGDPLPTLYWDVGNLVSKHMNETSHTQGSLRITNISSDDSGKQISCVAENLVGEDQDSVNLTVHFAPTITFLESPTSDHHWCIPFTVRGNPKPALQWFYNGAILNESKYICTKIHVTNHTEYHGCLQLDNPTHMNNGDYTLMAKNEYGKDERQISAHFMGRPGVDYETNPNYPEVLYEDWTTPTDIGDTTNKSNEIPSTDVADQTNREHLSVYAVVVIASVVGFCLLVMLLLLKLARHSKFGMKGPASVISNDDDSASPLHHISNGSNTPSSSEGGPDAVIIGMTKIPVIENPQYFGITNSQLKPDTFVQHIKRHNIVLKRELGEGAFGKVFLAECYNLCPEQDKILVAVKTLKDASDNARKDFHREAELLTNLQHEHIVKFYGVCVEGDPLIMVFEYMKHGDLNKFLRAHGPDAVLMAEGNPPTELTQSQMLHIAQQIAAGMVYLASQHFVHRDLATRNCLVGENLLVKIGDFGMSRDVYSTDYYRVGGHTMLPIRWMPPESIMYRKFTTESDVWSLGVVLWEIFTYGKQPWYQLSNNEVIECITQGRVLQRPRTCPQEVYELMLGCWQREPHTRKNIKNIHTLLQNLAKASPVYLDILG

B1: brain-derived neurotrophic factor (BDNF), recombinant human (ligand)
chain: HSDPARRGELSVCDSISEWVTAADKKTAVDMSGGTVTVLEKVPVSKGQLKQYFYETKCNPMGYTKEGCRGIDKRHWNSQCRTTQSYVRALTMDSKKRIGWRFIRIDTSCVCTLTIKRGR
With B1 the increase of neurite length against control culture, BDNF at 5 ng/ml was 60 to 70% and the neurite outgrowth of rat cerebellar neurons, concentration of maximal response was 1 to 10 ng/mL.

B2: neurotrophin-4 (NT-4/5), recombinant human (ligand)
chain: GVSETAPASRRGELAVCDAVSGWVTDRRTAVDLRGREVEVLGEVPAAGGSPLRQYFFETRCKADNAEEGGPGAGGGGCRGVDRRHWVSECKAKQSYVRALTADAQGRVGWRWIRIDTACVCTLLSRTGRA
In the case of B2, the neurite outgrowth of rat cerebellar neurons, concentration of maximal response is reported as 1 to 10 ng/mL.

B3: N-Ac-…-NH2 (peptide)
peptide: Ac-CSRRGELAASRRGELC-NH2
modifications: disulfide 1-16
SMILES: CC(=O)N[C@H]1CSSC[C@@H](C(N)=O)NC(=O)[C@H](CC(C)C)NC(=O)[C@H](CCC(=O)O)NC(=O)CNC(=O)[C@H](CCCNC(=N)N)NC(=O)[C@H](CCCNC(=N)N)NC(=O)[C@H](CO)NC(=O)[C@H](C)NC(=O)[C@H](C)NC(=O)[C@H](CC(C)C)NC(=O)[C@H](CCC(=O)O)NC(=O)CNC(=O)[C@H](CCCNC(=N)N)NC(=O)[C@H](CCCNC(=N)N)NC(=O)[C@H](CO)NC1=O
For B3, the “EC50 of stimulation of neurite outgrowth” value was roughly 300 nM.

B4: N-Ac-CSRRGEC-NH2 (peptide)
peptide: Ac-CSRRGEC-NH2
modifications: disulfide 1-7
SMILES: CC(=O)N[C@H]1CSSC[C@@H](C(N)=O)NC(=O)[C@H](CCC(=O)O)NC(=O)CNC(=O)[C@H](CCCNC(=N)N)NC(=O)[C@H](CCCNC(=N)N)NC(=O)[C@H](CO)NC1=O
With B4 the “inhibition of the BDNF response, fold against the NGF and NT-3 derived peptides” value was roughly 5 fold.

Reference: patent publication US20050164920A1 (Pfizer, published 2005)
